Among the data in publication PMC5758886 are stoichiometry N values, retold here.

In test [1] the target is AcrIIA1 (native wild type) (Listeria monocytogenes prophages). The test can be described thus: SEC.
The target is the same in test [2]. Description: crystal structure.
In test [3] the target is AcrIIA1 selenomethionyl L52M mutant (Listeria monocytogenes prophages). The test can be described thus: crystal structure.

The stoichiometry N is the number of molecules, sites or subunits per partner or assembly. For the substance “AcrIIA1 (native wild type) (natural protein)”, the stoichiometry N in test [1] and in test [2] was 2 in each case.

Take “AcrIIA1 selenomethionyl L52M mutant (natural protein)”: the stoichiometry N in test [3] came out at 2.
